Measurements published in patent US6602854B1, “Branched multimeric Apo A-I agonist compounds” (priority 1997, dated 2003).

Experiments:
[1] = HDL cholesterol in rabbits after injection of phospholipid/peptide complexes; type: in vivo, Male New Zealand White rabbits; parameters: HDL Cholesterol: unit not given here
Method: Small discoidal particles consisting of phospholipid (DPPC) and peptide were prepared following the cholate dialysis method. The phospholipid was dissolved in chloroform and dried under a stream of nitrogen. The peptide was dissolved in buffer (saline) at a concentration of 1-2 mg/ml. The lipid film was redissolved in buffer containing cholate (43° C.) and the peptide solution was added at a 3:1 phospholipid/peptide weight ratio. The mixture was incubated overnight at 43° C. and then dialyzed at 43° C. (24 hr.), room temperature (24 hr.) and 4° C. (24 hr.), with three changes of buffer (large volumes) at temperature point. The complexes were filter sterilized (0.22 μm) for injection and storage at 4° C.
Male New Zealand White rabbits (2.5-3 kg) were injected intravenously with a dose of phospholipid/peptide complex (5 or 10 mg/kg bodyweight, expressed as peptide) in a single bolus injection not exceeding 10-15 ml. The animals were slightly sedated before the manipulations. Blood samples (collected on EDTA) were taken before and 5, 15, 30, 60, 240 and 1440 minutes after injection. The hematocrit (Hct) was determined for each sample. Samples were aliquoted and stored at −20° C. before analysis.
Plasma Lipids. The total plasma cholesterol, plasma triglycerides and plasma phospholipids were determined enzymatically using commercially available assays according to the manufacturer's protocols (Boehringer Mannheim, Mannheim, Germany and Biomerieux, 69280, Marcy-L'étoile, France).
Lipoprotein Profiles. The plasma lipoprotein profiles of the fractions obtained after the separation of the plasma into its lipoprotein fractions were determined by spinning in a sucrose density gradient. The fractions were collected and in each individual fraction the phospholipid and cholesterol content was measured enzymatically.

[2] = Circular dichroism: degree of helicity (free, SUVs, micelles, TFE); details: for % Helicity Free: free in buffer
In short: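 Far-UV CD (190–260 nm) at 37 °C on 5 μM peptide in 5 mM phosphate pH 7.4, either free, with EPC:Chol 20:1 SUVs (Ri 30 or 50), with lysophosphatidylcholine micelles (Ri 100), or in 90% TFE. Helicity derived from mean residue ellipticity at 222 nm or CONTIN fitting to reference spectra.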

PVLDLFRELLNELLEALKQKLK [peptide 4]
HDL Cholesterol ([1]; 10 mg/kg i.v. as peptide/DPPC complexes, 15 min.): 428 | HDL Cholesterol ([1]; 10 mg/kg i.v. as peptide/DPPC complexes, time not printed (row between 0 and 15 min.)): 408 | Increase in HDL Cholesterol ([1]; 10 mg/kg, 15 min.): 31.3% | HDL Cholesterol ([1]; 10 mg/kg, 60 min.): 387 | Increase in HDL Cholesterol ([1]; 10 mg/kg, 60 min.): 18.9% | HDL Cholesterol ([1]; 10 mg/kg, 240 min.): 291 | Increase in HDL Cholesterol ([1]; 10 mg/kg, 240 min.): −10.7% | HDL Cholesterol ([1]; 10 mg/kg, 1440 min.): 347 | Increase in HDL Cholesterol ([1]; 10 mg/kg, 1440 min.): 6.6% | duration of the increase in cholesterol of the HDL fractions ([1]; 10 mg/kg, apparent at 5 min. following injection): approximately 1 hr | Increase in HDL Cholesterol ([1]; 10 mg/kg, time not printed (row between 0 and 15 min.)): 25.2% | % helicity in the presence of SUVs [2]: 97% | % helicity in the presence of TFE [2]: 94% | % Helicity Bound (micelles) ([2]; peptide concentration 0.15 μM): 65% | % Helicity Free ([2]; peptide concentration 0.15 μM): 42% | % Helicity Bound (micelles) ([2]; peptide concentration 0.40 μM): 68% | % Helicity Free ([2]; peptide concentration 0.40 μM): 58% | % Helicity Free ([2]; peptide concentration 2.0 μM): 63% | % Helicity Bound (micelles) ([2]; peptide concentration 5.0 μM): 95% | % Helicity Free ([2]; peptide concentration 5.0 μM): 80% | % Helicity TFE ([2]; peptide concentration 50.0 μM): 94% | He (%) free ([2]; percent helicity of free, unbound peptide): 80% | He (%) SUVs ([2]; percent helicity of peptide-SUV complexes): 97% | He (%) TFE ([2]; percent helicity of peptide-TFE solution): 94% | He (%) mics ([2]; percent helicity of peptide-micelle complexes): 95% | stability of the α-helical structure with temperature ([2]; temperature range of 5-45° C., data not shown): completely stable
